The record followed here is patent publication US20260069689A1 (Regeneron, published 2026).

Numbering of substitutions follows the chain as printed.

B1: mAb15150 (antibody, V domains shown)
VH: EVQLVETGGGLIQPGGSLRLSCAAPGFIVSSNYMSWVRQAPGKGLEWVSLLYPGGSTYYADSVKGRFTISRDNSKNTLYLQMNSLRADDTAVYYCARVLPIVEDHFDYWGQGTLVTVSS
VL: DIQLTQSPSFLSASVGDRVTITCRASQGMSSYLAWYQKKPGKAPKLLIYGATILQSGVPSRFSGSGSGTEFTLTISSLQPEDFATYYCQQLNSDPLYMYTFGQGTKLEIKR
B2: mAb13459 (antibody, V domains shown)
VH: EVQLVESGGGLVQPGRSLRLSCAASGFTFDDYAMHWVRQAPGKGLEWVSGISWNSGSIGYADSVKGRFTISRDNAKNSLYLQMNSLRAEDTALYYCAKDIGITTPYWGQGTLVTVSS
VL: AIQMTQSPSSLSASVGDRVTITCRASQDIRNDLGWYQQKPGKAPKLLIYSASSLQTGVPSRFSGSGSGTDFTLTISSLHPEDFATYYCLQDYNYVWTFGQGTKVEIKR
B3: mAb15170 (antibody, V domains shown)
VH: EVQLVESGGGLVQPGGSLRLSCAATGITVSSNYMSWVRQAPGKGLEWVSLIYSGGSTFYADSVKGRFTISRHNSKNTLYLQMSSLRAEDTAVYYCARDLVDFGMDVWGQGTTVTVSS
VL: DIQLTQSPSSLSASVGDRVTITCRASQGISNYLAWYQQKPGKAPKLLIYAASTLQSGVPSRFSGSGSGTDFTLTISSLQPEDFGTYYCQQLNSDSPTFGQGTKVEIKR
B4: mAb14312 (antibody, V domains shown)
VH: EVQLVESGGGLVQPGGSLRLSCAASGFTVSRSYMTWVRQAPGKGLEWVSVIFTGGRTDHADSVKGRFTISRHNSKNTLYLQMNSLRTEDTAVYYCARVAIVGATGAFDIWGQGTMVTVSS
VL: QSVLTQPPSVSGAPGQRVTISCTGSSSNIGAGDDVHWYQQLPGTAPKLLIYGNSNRPSGVPDRFSGSKSGTSASLAITGLQAEDEADYYCQSYDSSLSGSVVFGGGTKLTVLG
B5: mAb14284 (antibody, V domains shown)
VH: QITLKESGPTLVKPTQTLTLTCTFSGFSFSTSGVGVGWIRQPPGKTLEWLALIYWDDDKRYSPSLKSRLTITKDTSKNQVVLTMTNMDPVDTATYFCAHHGIPTIFGYWGQGALVTVSS
VL: QSALTQPASVSGSPGQSITISCTGTSSDLGVFNYVSWYQQHPGKAPKLMIYEVTNRPSGVSNRFSGSKSGNTASLTISGLQAEDEADYYCSSYTTSSTVFGGGTKLTVLG
B6: mAb15150 (antibody, V domains shown)
VH: B1 VH
VL: B1 VL
B7: mAb15164 (antibody, V domains shown)
VH: EVQLVESGGGLVQPGGSLRLSCAASGFAVSSNYMTWVRQAPGKGLEWVATIYSGDSTYYADSVKGRFTISRHNSKNTLSLQMNSLRADDTAIYYCARLSGVLSGTYNGAFDIWGQGTMVTVSS
VL: QSALTQPASVSGSPGQSITISCTGTSSDFGNYNIVSWYQQHPGQAPKVMIYEGNKRPSGVSNRFSGSKSGHTASLTISGLQAEDEADYYCSSYAGSSTWVFGGGTKLTVLG
B8: mAb15165 (antibody, V domains shown)
VH: EVQLVESGGGLVQPGGSLRLSCAASGFTVSSNYMSWVRQAPGKGLEWVSAIYSGDSTYYADSVKGRFTISKDNSKNTLYLQMNSLRGEDTAVYYCARLGGALQAYDGAFDYWGQGTLATVSS
VL: B7 VL with N31S, I34L, Q44K, V48L, N62I, H71N
B9: mAb15166 (antibody, V domains shown)
VH: EVQLVESGGGLVQPGGSLRLSCAASGFTVTSNYMSWVRQAPGKGLEWVSAIYSGESTYYADSVKGRFTISRDSSKNTLYLQMNSLRVEDTAVYYCASIHDYSNYVGGFDPWGQGTLVTVSS
VL: B7 VL with T25P, N31S, I34L, Q44K, V48L, N54T, H71N
B10: mAb15151 (antibody, V domains shown)
VH: QVQLVESGGGVVQPGRSLRLSCAASGFVFNSYGMHWVRQAPGKGLEWVAVLWYEGSKNYYADSVKGRFTISRDNSKNTLYLQMNSLRAEDTAVYYCARHGSGSFFGYYLDYWGQGTLVTVSS
VL: DIQMTQSPSSLSASVGDRVTITCRASHNINDFLNWYQQKPGKAPRLLIYAASSLQSGVPSRFSGSGSGTDFTLTISSLQPEDFATYYCQESYTTPPTFGQGTKLEIKR
B11: mAb15163 (antibody, V domains shown)
VH: EVQLVETGGGLIQPGESLRLSCAASGFIVSTNYMNWVRQAPGKGLEWVSVIYRGGSTYYADSVKGRFTISRDNSKNTLFLQMNSLRAEDTAVYYCARGHEDFDYDTPASGAFDIWGQGTMVTVSS
VL: QSALTQPPSASGSPGQSVTISCTGTSSDVGGHNYVSWYQQHPGKAPKVMIYEVSKRPSGVPDRFSGSKSGNTASLTVSGLQAEDEADYYCSSYAGSNKFVFGTGTKVTVLG
B12: mAb15161 (antibody, V domains shown)
VH: EVQLVESGGGLVQPGGSLRLSCAASGFTFSSYEMNWVRQAPGKGLEWVSYISSSGSILYYADSVKGRFTASRDNAKNSLYLQMNSLRAEDTGVYYCARREYQLLRPFEFWGQGTLVTVSS
VL: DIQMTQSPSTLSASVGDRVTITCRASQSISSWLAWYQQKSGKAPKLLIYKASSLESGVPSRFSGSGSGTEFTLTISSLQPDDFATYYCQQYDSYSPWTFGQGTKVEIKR
B13: mAb15162 (antibody, V domains shown)
VH: EVQLVETGGGLIQPGGSLRLSCAASEFIVSRNYMSWVRQAPGKGLEWVSLIYSGGSTYYADSVKGRFTISRDNSKNILYLQMNSLRAEDTAVYYCARDRGGISDYWGQGTLVTVSS
VL: DIQMTQSPSSLSASVGDRVTITCQASQDINKYLNWFQQKPGKAPKLLIYDASNLETGVPSRFSGSGSGTDFTFTISSLQPEDIATYYCQQYDNLPRTFGQGTKLEIKR
B14: mAb14258 (antibody, V domains shown)
VH: QLQLQESGPGLVKPSETLSLICTGSGDSISSSHYYWGWIRQPPGKGLEWIGSTYFSGSTYYNPSLKSRVSISVDTSKNQVSLKLISVTAADTAVYYCAREMGATLGDYWGPGTLVTVSS
VL: QSVLTQPPSASGTPGQRVTISCSGSSSNIGNNYVYWYQQFPGTTPRLLIYRNNERPSGVPDRFSGSKSGTSASLVISGLRSEDEADYYCAAWDDSLSAHYVFGTGTKVTVLG

One assay concerns the target T1, SARS-COV-2 RBD extracellular domain expressed with a C-terminal mouse IgG2a Fc (SARS-CoV-2). The experiment in a line: Biacore SPR, mAb captured on anti-hFc, 37 C. (In general: SPR reads the build-up and loss of mass on a sensor chip optically.)
One may read the Kd as the free concentration of one partner at which half of the binding sites on the other are occupied at equilibrium, for simple one-to-one binding. One may read the koff as the first-order rate constant of dissociation. Usually kon stands for the rate constant with which the complex forms. What is called t½ is the time in which the quantity being followed falls by half. High values mean slow loss, low ones fast loss. Consider B1, for which the affinity, expressed as Kd, was 0.0296 nM; the koff stood at 2.8e-05 s⁻¹; the kon amounted to 946000 M⁻¹ s⁻¹; the t½ was 412 min.
For B2 the same measures were 0.0939 nM, 9.24e-05 s⁻¹, 985000 M⁻¹ s⁻¹ and 125 min.

A further assay concerns the target T2, SARS-CoV2 Spike ecto foldon Trimer expressed with a C-terminal myc-myc-hexahistidine (SARS-CoV-2, UniProt P0DTC2 14-1213).
T2 construct: extracellular domain
The assay can be described thus: SPR Biacore, mAb captured by anti-hFc, 37C.
In the case of B3, the Kd was determined as 0.0118 nM, the koff worked out at 1e-05 s⁻¹, the on-rate (kon) is 846000 M⁻¹ s⁻¹ and the t½ was found to be 1160 min.
Taken in the same sequence, the figures for B4 were 0.0563 nM, 5.44e-05 s⁻¹, 966000 M⁻¹ s⁻¹ and 212 min.
Consider B5, for which the Kd was 0.0251 nM, the koff is 2.05e-05 s⁻¹, the on-rate constant (kon) is 814000 M⁻¹ s⁻¹ and the t½ was determined as 565 min.
Consider B6, for which the affinity, expressed as Kd, was 0.0202 nM; the off-rate constant (koff) worked out at 3.42e-05 s⁻¹; the kon amounted to 1.68e+06 M⁻¹ s⁻¹; the t½ is 338 min.
For B7 the same measures were 0.0777 nM, 0.000138 s⁻¹, 1.78e+06 M⁻¹ s⁻¹ and 84 min.
B8 yielded a Kd of 0.0542 nM, a koff of 0.000115 s⁻¹, an association rate constant (kon) of 2.12e+06 M⁻¹ s⁻¹ and a t½ of 100 min.
For B9 the same measures were 0.054 nM, 8.32e-05 s⁻¹, 1.54e+06 M⁻¹ s⁻¹ and 139 min.
B10: the Kd amounted to 0.129 nM, the koff amounted to 0.000248 s⁻¹, the on-rate (kon) amounted to 1.92e+06 M⁻¹ s⁻¹ and the t½ came out at 46.6 min.
Turning to B11, the Kd came out at 0.0364 nM, the koff was 4.85e-05 s⁻¹, the kon came to 1.35e+06 M⁻¹ s⁻¹ and the t½ is 238 min.
Taken in the same sequence, the figures for B12 were 0.0616 nM, 9.14e-05 s⁻¹, 1.48e+06 M⁻¹ s⁻¹ and 126 min.
For B13 the same measures were 0.425 nM, 0.000187 s⁻¹, 440000 M⁻¹ s⁻¹ and 61.7 min.

The target of another assay is T1, SARS-COV-2 RBD extracellular domain …. The assay can be described thus: Biacore SPR, mAb captured on anti-hFc, 25 C.
B14 had a dissociation constant (Kd) of 3.04 nM, a koff of 0.000109 s⁻¹, a kon of 35600 M⁻¹ s⁻¹ and a t½ of 106 min.

The target of the next assay is T2, SARS-CoV2 Spike ecto foldon Trimer …. The experiment in a line: SPR Biacore, mAb captured by anti-hFc, 25C.
Take B3: the Kd worked out at 0.11 nM, the koff came to 1.29e-05 s⁻¹, the kon is 120000 M⁻¹ s⁻¹ and the t½ came out at 893 min.
Taken in the same sequence, the figures for B4 were 0.0272 nM, 5.24e-05 s⁻¹, 1.93e+06 M⁻¹ s⁻¹ and 220 min.
In turn, B5 came in with a Kd of 0.0161 nM, a koff of 1.31e-05 s⁻¹, a kon of 812000 M⁻¹ s⁻¹ and a t½ of 883 min.
Taken in the same sequence, the figures for B6 were at most 0.0315 nM, at most 1e-05 s⁻¹, 317000 M⁻¹ s⁻¹ and 1160 min.
For B7 the same measures were 0.0865 nM, 2.58e-05 s⁻¹, 298000 M⁻¹ s⁻¹ and 448 min.
In the case of B8, the Kd was determined as 0.0279 nM, the koff is 1.09e-05 s⁻¹, the kon was 391000 M⁻¹ s⁻¹ and the t½ was determined as 1060 min.
Taken in the same sequence, the figures for B9 were 0.63 nM, 0.000174 s⁻¹, 276000 M⁻¹ s⁻¹ and 66.3 min.
For B10 the same measures were 0.187 nM, 6.26e-05 s⁻¹, 335000 M⁻¹ s⁻¹ and 184 min.
For B11 the same measures were 0.0562 nM, 1.15e-05 s⁻¹, 214000 M⁻¹ s⁻¹ and 1000 min.
The molecule B12 displayed a Kd of 0.049 nM, a koff of 1.38e-05 s⁻¹, a kon of 280000 M⁻¹ s⁻¹ and a t½ of 840 min.
In turn, B13 showed a Kd of 0.648 nM, a koff of 6.79e-05 s⁻¹, an on-rate constant (kon) of 105000 M⁻¹ s⁻¹ and a t½ of 170 min.
